PMC10543594

Assays:
[1] = biological target: SARS-CoV-2 Alpha variant spike ectodomain fused to resistin (SARS-CoV-2 | human) (UniProt P0DTC2); assay: SEC-MALS
[2] = biological target: SARS-CoV-2 Delta spike ectodomain without trimerization domain (SARS-CoV-2) (UniProt P0DTC2)

Substance	stoichiometry N [1]	percent trimeric [2] [%]
SARS-CoV-2 Alpha variant spike ectodomain fused to resistin (from UniProt P0DTC2 14-1213)	6	
SARS-CoV-2 Delta spike ectodomain without trimerization domain (from UniProt P0DTC2 14-1213) (domain or fragment)		30 to 50
